We go through twelve molecules from US20210087291A1 (Hoffmann-La Roche, published 2021).

In experiment [1] the target is T1, human TIM-3 on cells (human, UniProt Q8TDQ0 22-301). Nature of the experiment: cell-based or functional assay.
Experiment [2] concerns the target T1, human TIM-3 on cells. As to the kind of experiment: cell-based or functional assay. This is another data set of the same source.
Experiment [3] has as its target T2, murine FolR1 ECD-AcTev-Fcknob-Avitag + Fc hole, biotinylated monomeric Fc fusion (murine, UniProt P0DOX5 223-449 = IgG part).
T2 construct: also called muFolR1; murine FolR1-Fc
As to the kind of experiment: SPR, IgG single injection.

Experiment [4] addresses human FolR2 on transiently transfected HEK cells (human, UniProt P14207 17-230). Nature of the experiment: flow cytometry on HEK cells transiently transfected with human FolR2, anti-human secondary antibody; concentration not given.
Experiment [5] deals with T2, murine FolR1 ECD-AcTev-Fcknob-Avitag + …. As to the kind of experiment: SPR ProteOn, Fab analyte.
Description: Immobilization of antigens (ligand): Recombinant antigens were diluted with PBST (10 mM phosphate, 150 mM sodium chloride pH 7.4, 0.005% Tween 20) to 10 μg/ml, then injected at 30 μl/minute in vertical orientation. Injection of analytes: For ‘one-shot kinetics’ measurements, injection direction was changed to horizontal orientation, two-fold dilution series of purified Fab (varying concentration ranges) were injected simultaneously along separate channels 1-5, with association times of 150 or 200 s, and dissociation times of 200 or 600 s, respectively. Buffer (PBST) was injected along the sixth channel to provide an “in-line” blank for referencing. Association rate constants (kₒₙ) and dissociation rate constants (koff) were calculated using a simple one-to-one Langmuir binding model in ProteOn Manager v3.1 software by simultaneously fitting the association and dissociation sensorgrams. The equilibrium dissociation constant (KD) was calculated as the ratio koff/kₒₙ.
Experiment [6] has the same target. Nature of the experiment: SPR ProteOn, Fab analyte. This is another data set of the same source.
Description: (§1) Immobilization of antigens (ligand): Recombinant antigens were diluted with PBST (10 mM phosphate, 150 mM sodium chloride pH 7.4, 0.005% Tween 20) to 10 μg/ml, then injected at 30 μl/minute in vertical orientation.
(§2) Injection of analytes: For ‘one-shot kinetics’ measurements, injection direction was changed to horizontal orientation, two-fold dilution series of purified Fab (varying concentration ranges) were injected simultaneously along separate channels 1-5, with association times of 200 s, and dissociation times of 600 s. Buffer (PBST) was injected along the sixth channel to provide an “in-line” blank for referencing. Association rate constants (kₒₙ) and dissociation rate constants (koff) were calculated using a simple one-to-one Langmuir binding model in ProteOn Manager v3.1 software by simultaneously fitting the association and dissociation sensorgrams. The equilibrium dissociation constant (KD) was calculated as the ratio koff/kₒₙ.
Experiment [7] concerns the target T3, human FolR2 ECD-AcTev-Fcknob-Avi tag + Fc hole, biotinylated monomeric Fc fusion (human, UniProt P0DOX5 223-449 = IgG part).
T3 construct: also called huFolR2; FolR2-Fc
As to the kind of experiment: SPR ProteOn, Fab analyte.
Description: as §1, §2

For experiment [8], the target named is T4, cynomolgus FolR1 ECD-AcTev-Fcknob-Avi tag + Fc hole, biotinylated monomeric Fc fusion (cynomolgus, UniProt P0DOX5 223-449 = IgG part).
T4 construct: also called cyFolR1; cyno FolR1-Fc
Nature of the experiment: SPR ProteOn, Fab analyte.
Description: as §1, §2

The target of experiment [9] is T5, human FolR1 ECD-AcTev-Fcknob-Avi tag + Fc hole, biotinylated monomeric Fc fusion (human, UniProt P0DOX5 223-449 = IgG part).
T5 construct: also called huFolR1; huFolR1-Fc
Nature of the experiment: SPR ProteOn, Fab analyte.
Description: as §1, §2

The target of experiment [10] is T6, human FolR3 ECD-AcTev-Fcknob-Avi tag + Fc hole, biotinylated monomeric Fc fusion (human, UniProt P0DOX5 223-449 = IgG part).
T6 construct: also called huFolR3; FolR3-Fc
As to the kind of experiment: SPR ProteOn, Fab analyte.
Description: as §1, §2

In experiment [11] the target is T7, cynomolgus TIM-3 on isolated cyno CD14+ monocytes (cynomolgus).
T7 construct: whole, on cells
As to the kind of experiment: flow cytometry, cyno CD14+ monocytes cyno2.
Excerpt: (§3) CD14+ Monocytes were isolated from cynomolgus monkey anticoagulated peripheral blood (Covance) by density gradient centrifugation using Ficoll-Paque (GE Healthcare) (see General Protocols in the User Manuals or visit www.miltenyibiotec.com/protocols) and subsequent positive selection via NHP CD14 MicroBeads. First the CD14+ cells are magnetically labeled with CD14 MicroBeads. Then the cell suspension is loaded onto a MACS® Column which is placed in the magnetic field of a MACS Separator. The magnetically labeled CD14+ cells are retained in the column. The unlabeled cells run through, this cell fraction is depleted of CD14+ cells. After removal of the column from the magnetic field, the magnetically retained CD14+ cells can be eluted as the positively selected cell fraction. After centrifugation at 200×g for 10 min at room temperature the monocytes were harvested and used directly in binding assay or resuspended in freezing medium (10% DMSO, 90% FCS) at 1.0E+07 cells/ml and stored in liquid nitrogen.
(§4) 1×10⁵ CD14+ isolated cyno monocytes (50 μl/well) were put into 98 well-v bottom MTP in fresh culture medium and incubated with Redimune® NF Liquid for 15 min at RT to block unspecific binding. Than 50 μl/well of Alexa488 labeled anti-TIM3 (10 μg/ml in cell culture medium) were added and incubated for 1 h at 4° C. After washing and centrifugation MFI signals of stained cells were analyzed by BD Biosciences FACSCanto flow cytometer.

Experiment [12] has as its target T8, huFc fused dimeric human Tim3-ECD (human, UniProt Q8TDQ0 22-202).
T8 construct: also called huTim3Fc; bivalent Tim3
As to the kind of experiment: SPR Biacore, bivalent Tim3.
Description: (§5) Therefore, an anti-mouse IgG was immobilized by amine coupling to the surface of a (Biacore) CM5 sensor chip. The samples were then captured and hu/cy Tim3-ECD was bound to them. The sensor chip surface was regenerated after each analysis cycle. The equilibrium constant KD was finally gained by fitting the data to a 1:1 langmuir interaction model.
(§6) Flow cell temperature was set to 25° C. and sample compartment temperature to 12° C. The system was primed with running buffer. The samples were injected for 30 seconds with a concentration of 200 μg/ml and bound to the spots 1 and 5 of each flow cell, allowing the measurement of eight samples in parallel. Then a complete set of different (monomeric cyno, monomeric human and huFc fused dimeric human Tim3-ECD) concentrations (s. Table X) was injected over each sample for 240 s followed by a dissociation time of 30/1800 s (s. Table 1). Each analysis cycle (sample capture, spot 1 and 5—Tim3 ECD injection) was then regenerated with a 30 seconds long injection of Glycine-HCl pH 1.7. The flow rate was set to 30 μl/min for the whole run. Finally, the double referenced data was fitted to a 1:1 langmuir interaction model with the Biacore B4000 Evaluation Software.

In experiment [13] the target is T1, human TIM-3 on cells. Nature of the experiment: cell-based or functional assay. This is another data set of the same source.
In experiment [14] the target is T1, human TIM-3 on cells. As to the kind of experiment: flow cytometry, human CD14+ monocytes donor2.
Experiment [15] has as its target T9, Tim3-ECD-His-Biotin (human, UniProt Q8TDQ0 22-202).
T9 construct: also called human Tim3 (ELISA); Biochem Human
Nature of the experiment: ELISA on Tim3-ECD-His-Biotin.
Description: After washing (3×90 μl/well with PBST-buffer) 25 μl aTim3 samples or diluted (1:2 steps) reference antibody aTim3 F38-2E2 (Biolegend) was added and incubated 1 h at RT. After washing (3×90 μl/well with PBST-buffer) 25 μl/well sheep-anti-mouse-POD (GE NA9310V) was added in 1:9000 dilution and incubated at RT for 1 h while shaking at 400 rpm rotation. After washing (4×90 μl/well with PBST-buffer) 25 μl/well TMB substrate (Calbiochem, #CL07) was added and incubated until OD 1.5-2.5. Then the reaction was stopped by addition of 25 μl/well 1N HCL-solution.

The target of experiment [16] is T1, human TIM-3 on cells. Nature of the experiment: cell-based or functional assay. The source holds these as a separate data set.
Experiment [17] addresses T8, huFc fused dimeric human Tim3-ECD. As to the kind of experiment: SPR Biacore, antibody captured by anti-mouse IgG.
Description: as §5, §6
In experiment [18] the target is T1, human TIM-3 on cells. Nature of the experiment: cell ELISA, CHO-K1 expressing human Tim3.
Description: Then the reaction was stopped by addition of 25 μl/well 1N HCL-solution.
Experiment [19] deals with T7, cynomolgus TIM-3 on isolated cyno CD14+ …. Nature of the experiment: flow cytometry, cyno CD14+ monocytes cyno1.
Excerpt: as §3, §4
Experiment [20] shares this target. Nature of the experiment: flow cytometry, cyno CD14+ monocytes cyno3.
Experiment [21] addresses T1, human TIM-3 on cells. As to the kind of experiment: flow cytometry, human CD14+ monocytes donor1.
Excerpt: CD14+ Monocytes were isolated from anticoagulated peripheral blood of healthy donors by density gradient centrifugation using Ficoll-Paque (GE Healthcare) (see General Protocols in the User Manuals or visit www.miltenyibiotec.com/protocols) and subsequent positive selection via CD14 MicroBeads. First the CD14+ cells are magnetically labeled with CD14 MicroBeads. Then the cell suspension is loaded onto a MACS® Column which is placed in the magnetic field of a MACS Separator. The magnetically labeled CD14+ cells are retained in the column. The unlabeled cells run through, this cell fraction is depleted of CD14+ cells. After removal of the column from the magnetic field, the magnetically retained CD14+ cells can be eluted as the positively selected cell fraction. After centrifugation at 200×g for 10 min at room temperature the monocytes were harvested and used directly in binding assay or resuspended in freezing medium (10% DMSO, 90% FCS) at 1.0E+07 cells/ml and stored in liquid nitrogen.
1×10⁵ CD14+ isolated human monocytes (50 μl/well) were put into 98 well-v bottom MTP in fresh culture medium and incubated with Redimune® NF Liquid for 15 min at RT to block unspecific binding. […] After washing and centrifugation MFI signals of stained cells were analyzed by BD Biosciences FACSCanto flow cytometer.
Experiment [22] addresses T1, human TIM-3 on cells. As to the kind of experiment: flow cytometry, human CD14+ monocytes donor3.

Chain of human FolR2 on transiently transfected HEK cells (P14207 17-230 limits assumed): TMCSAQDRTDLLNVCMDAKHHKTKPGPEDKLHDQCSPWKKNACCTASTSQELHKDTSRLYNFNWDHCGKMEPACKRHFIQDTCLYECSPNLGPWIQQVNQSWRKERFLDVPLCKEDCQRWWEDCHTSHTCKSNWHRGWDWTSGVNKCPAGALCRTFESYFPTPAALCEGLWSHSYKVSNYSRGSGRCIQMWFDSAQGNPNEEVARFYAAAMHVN

B1: Tim3_0022 Fab-PE24 construct (Fab, V domains shown)
VH: EVQLQESGPSLVKPSQTLSLTCSVTGDSIASAYWNWIRKFPGNKLEYMGYINYSGSTYYNPSLKSRISITRDTSQNQYYLQLNSVTTEDTATYYCVTGDYFDYWGRGTTLTVSS
VL: DIQMTQSPSSLSAYLGGKVTITCKARQDVRKNIGWYQHKPGKGPRLLIWYTSTLQSGIPSRFSGSGSGRDYSFNINNLEPEDIATYYCLQYDNLPFTFGTGTKLEIR
Consider B1, for which, in [1], the “IC50 cytotoxicity, primary AML CD34+ PB0135” value is over 691 nM and the “IC50 cytotoxicity, primary AML CD34+ PB0136” value was over 691 nM. Also, in experiment [2], the “IC50 cytotoxicity, CMK” value is 255 nM; the “IC50 cytotoxicity, Karpas-299” value worked out at 10 nM; the “IC50 cytotoxicity, MOLM-13” value came to 579 nM; the “IC50 cytotoxicity, TF-1” value came out at 299 nM.

B2: 5D9 IgG (antibody, V domains shown)
VH: QVQLVQSGAEVKKPGASVKVSCKASGYTFTSYYMHWVRQAPGQGLEWMGIINPSGGSTSYAQKFQGRVTMTRDTSTSTVYMELSSLRSEDTAVYYCARSYIDMDYWGQGTLVTVSS
VL: EIVLTQSPGTLSLSPGERATLSCRASQSVSSSYLAWYQQKPGQAPRLLIYGASSRATGIPDRFSGSGSGTDFTLTISRLEPEDFAVYYCQQDNWSPTFGQGTKVEIK
notes: human IgG1
Turning to B2, the binding result in [3] is listed as “no binding (tested: 500 nM)”; in experiment [4], “binds”.

B3: 5D9 Fab (Fab, V domains shown)
VH: QVQLVQSGAEVKKPGASVKVSCKASGYTFTSYYMHWVRQAPGQGLEWMGIINPSGGSTSYAQKFQGRVTMTRDTSTSTVYMELSSLRSEDTAVYYCARSYIDMDYWGQGTLVTVSS
VL: EIVLTQSPGTLSLSPGERATLSCRASQSVSSSYLAWYQQKPGQAPRLLIYGASSRATGIPDRFSGSGSGTDFTLTISRLEPEDFAVYYCQQDNWSPTFGQGTKVEIK
Take B3: the binding result in [5] is on record as “no binding”.

B4: 6B6 Fab (Fab, V domains shown)
VH: QVQLVQSGAEVKKPGASVKVSCKASGYTFTSYYMHWVRQAPGQGLEWMGIINPSGGSTSYAQKFQGRVTMTRDTSTSTVYMELSSLRSEDTAVYYCARSYVDMDYWGQGTLVTVSS
VL: EIVLTQSPGTLSLSPGERATLSCRASQSVSSSYLAWYQQKPGQAPRLLIYGASSRATGIPDRFSGSGSGTDFTLTISRLEPEDFAVYYCQQDIWSPTFGQGTKVEIK
On to B4, for which the binding result in experiment [5] is reported as “no binding”.

B5: 15B6 Fab (Fab, V domains shown)
VH: QVQLVQSGAEVKKPGASVKVSCKASGYTFTSYYMHWVRQAPGQGLEWMGIINPSGGSTSYAQKFQGRVTMTRDTSTSTVYMELSSLRSEDTAVYYCARNYYIGIVPFDYWGQGTLVTVSS
VL: QAVVTQEPSLTVSPGGTVTLTCGSSTGAVTTSNYANWVQEKPGQAFRGLIGGTNKRAPGTPARFSGSLLGGKAALTLSGAQPEDEAEYYCALWYSNLWVFGGGTKLTVL
Consider B5, for which the binding result in [6], in [7] and in [10] was “no binding” in each case. Also, the Kd in experiment [8] came out at 13.9 nM; in experiment [9], 19.1 nM.

B6: 21A5 Fab (Fab, V domains shown)
VH: not shown
VL: QAVVTQEPSLTVSPGGTVTLTCGSSTGAVTTSNYANWVQEKPGQAFRGLIGGTNKRAPGTPARFSGSLLGGKAALTLSGAQPEDEAEYYCALWYSNLWVFGGGTKLTVL
Consider B6, for which the binding result in experiment [6] and in [7] was “no binding” each time.

B7: 21G8 Fab (Fab, V domains shown)
VH: not shown
VL: QAVVTQEPSLTVSPGGTVTLTCGSSTGAVTTSNYANWVQEKPGQAFRGLIGGTNKRAPGTPARFSGSLLGGKAALTLSGAQPEDEAEYYCALWYSNLWVFGGGTKLTVL
In the case of B7, in experiment [6], the binding result was “no binding”.

B8: 16F12 Fab (Fab, V domains shown)
VH: QVQLVQSGAEVKKPGASVKVSCKASGYTFTSYYMHWVRQAPGQGLEWMGIINPSGGSTSYAQKFQGRVTMTRDTSTSTVYMELSSLRSEDTAVYYCARNFTVLRVPFDYWGQGTLVTVSS
VL: QAVVTQEPSLTVSPGGTVTLTCGSSTGAVTTSNYANWVQEKPGQAFRGLIGGTNKRAPGTPARFSGSLLGGKAALTLSGAQPEDEAEYYCALWYSNLWVFGGGTKLTVL
With B8, the binding result in experiment [6], in experiment [7] and in experiment [10] was “no binding” throughout. The Kd in experiment [8] is 90.9 nM; in [9], 68 nM.

B9: 16D5 Fab (Fab, V domains shown)
VH: not shown
VL: QAVVTQEPSLTVSPGGTVTLTCGSSTGAVTTSNYANWVQEKPGQAFRGLIGGTNKRAPGTPARFSGSLLGGKAALTLSGAQPEDEAEYYCALWYSNLWVFGGGTKLTVL
On to B9, for which the binding result in experiment [6], in experiment [7] and in [10] was “no binding” throughout.

B10: Tim3_0016 Fab-PE24 construct (Fab, V domains shown)
VH: QVTLKESGPGILQPSQTLRLTCSFSGFSLSTSGMSVGWIRQPSGKGLEWLAHIWLNDDVFFNPALKSRLTISKDTSNNQVFLQIASVVTADTATYYCVRANGYLYALDYWGQGTSVTVSS
VL: QIVLTQSPAIMSASPGQKVTITCSASSSVNYTQWYQQKLGSSPKLWIYDAFKLAPGVPARFSGSGTGTSYSLTISSMEAEDAASYFCHQWSSYPWTFGGGTKLEIK
Regarding B10, in [1], the “IC50 cytotoxicity, primary AML CD34+ PB0135” value was over 691 nM and the “IC50 cytotoxicity, primary AML CD34+ PB0136” value is over 691 nM. Besides, in experiment [2], the “IC50 cytotoxicity, CMK” value was 225 nM; the “IC50 cytotoxicity, Karpas-299” value amounted to 4 nM; the “IC50 cytotoxicity, MOLM-13” value worked out at 459 nM; the “IC50 cytotoxicity, TF-1” value turned out to be 534 nM.

B11: 11F8 IgG (antibody, V domains shown)
VH: QVQLVQSGAEVKKPGSSVKVSCKASGGTFSSYAISWVRQAPGQGLEWMGGIIPIFGTANYAQKFQGRVTITADKSTSTAYMELSSLRSEDTAVYYCARAVFYRAWYSFDYWGQGTTVTVSS
VL: DIQMTQSPSTLSASVGDRVTITCRASQSISSWLAWYQQKPGKAPKLLIYDASSLESGVPSRFSGSGSGTEFTLTISSLQPDDFATYYCQQYTSPPPTFGQGTKVEIK
notes: human IgG1
For the molecule B11, the binding result in experiment [4] is “binds”.

B12: Tim3_0033 (antibody, V domains shown)
VH: QGQMHQSGAELVKPGSSVKLSCKTSGFTFSSSFISWLKQKPGQSLEWIAWIYAATGSTSYNQKFTNKAQLTVDTSSSAAYMQFSSLTTEDSAIYYCARHAGYPHYYAMDYWGQGTSVTVSS
VL: DIQMTQSPASLSASVGETVTITCRASENIFSNLAWYQQKQGKSPQLLVYSATNLGDGVPSRFSGSGSGTQFSLKINSLQPEDFGNYYCQHFYKIPFTFGTGTKLEIK
Molecule B12 displayed an MFI in experiment [11] of 81 MFI. This molecule also gave a Kd in [12] of 3.1 nM. Besides, in experiment [13], the “internalization at 30 Min, RPMI-8226” value was found to be 75%; the “internalization at 60 Min, RPMI-8226” value was 81%; the “internalization at 120 Min, RPMI-8226” value was determined as 82%; the “internalization at 240 Min, RPMI-8226” value turned out to be 82%. For the same molecule, the “internalization at 26 h, RPMI-8226” value in experiment [13] is 80%. The “specific binding MFI” value in experiment [14] was 328 MFI. The molecule also came in with an EC50 in experiment [15] of 1.32 µg/mL. For the same molecule, in experiment [16], the “IFN-gamma release in MLR at 1 µg/ml, % of IL-2 control” value was found to be 0%; the “IFN-gamma release in MLR at 10 µg/ml, % of IL-2 control” value was determined as 30%; the “IFN-gamma release in MLR at 40 µg/ml, % of IL-2 control” value worked out at 35%. In experiment [17], this molecule gave a Kd of 3.05 nM. In experiment [18], the concentration giving a half-maximal response (EC50) amounted to 3.71 µg/mL. The MFI in [19] amounted to 71 MFI. Besides, the MFI in [20] came out at 83 MFI. Also, in experiment [21], the “specific binding MFI” value was determined as 480 MFI. Further, in experiment [22], the “specific binding MFI” value is 595 MFI.
